In a protein production outcome set (Wang et al. 2014) one finds protein production data, which are given here for 16 sequences.

A short description of this data set: label from the status in PepcDB records.
Take “EKEFYLDSSSEALEEKAITHTSKKPDTPEEITISLNGHLFTGNTEQPLLMQVEEAGLSINNSCRAGLCGACRVTLESGEVEQEDSPALNQKLKEAGMILACCSVPKTDVEIVD”: the protein production entry is given as “failed”.

Consider “MIRHTVVFTLKHASHSLEEKRFLVDAKKILSAIRGVTHFEQLRQISPKIDYHFGFSMEFADQAAYTRYNDHPDHVAFVRDRWVPEVEKFLEIDYVPLGSVV”, for which the protein production result was “not failed”.

Turning to “MSRRDQLFSAMTASYVIAVTLAIVIAAIFAPVIWNGVPSGGDDDPSVAVITLRGGTTDANVNAVKQDLREARTNESIEAVVLRVDSPGGPVDSSEEFYLAVNRTASEMPVVAYVEGTAASGGYYGITPADEIVVKPSSNVGSIGVIVQAPLSLIEQVEQQGETFVRSGPDKAQISKDSLREDIEVLQRSFVGTVMRHRGEQLTVSREEVANGGTYLGAQATENGFADRIGDTGLAIERAAALSDDIEGDQYDVVYQGSGGAEFNVIIVPAGAETVQGANNVTYLVHPDNSETTFREPVKYYAVWGIPAEDNNATVIRND”, the protein production entry was “failed”.

Regarding “MVVVTGREPDSRRQDGAMSSSDAEDDFLEPATPTATQAGHALPLLPQEFPEVVPLNIGGAHFTTRLSTLRCYEDTMLAAMFSGRHYIPTDSEGRYFIDRDGTHFGDVLNFLRSGDLPPRERVRAVYKEAQYYAIGPLLEQLENMQPLKGEKVRQAFLGLMPYYKDHLERIVEIARLRAVQRKARFAKLKVCVFKEEMPITPYECPLLNSLRFERSESDGQLFEHHCEVDVSFGPWEAVADVYDLLHCLVTDLSAQGLTVDHQCIGVCDKHLVNHYYCKRPIYEFKITWW”, the protein production entry is recorded as “failed”.

“MFETFFSTYLSSTIRFLFLLAPFFVVTMFLALTRGLSMAEKTSIIRRACVSAFILGVILFFAGPLLFNAIGITLNSFRIGAGSLLFLTAISLVNSGTRNHATGLPEEDRDDIAVVPLAIPVMIGPATIGAIMVYGAELKAVPEVAGGLLGLVSGLMILAGLLRLSGYLEKALGKTGLNIMSKISGLILSAMAAEIVLTGIAGFIASTSGA”: the protein production entry is reported as “failed”.

Take “MESMVAPGEVLMSQAIQPAHADSRGELSAGQLLKWMDTTACLAAEKHAGISCVTASMDDILFEDTARIGQIITIRAKVTRAFSTSMEISIKVIVQDKFTGIQKLLCVAFSTFVAKPVGKEKVHLKPVLLQTEQEQVEHNLASERRKVRLQHENTFNNIMKESSRFSDSICNEEEGTATTMGTSVQSIELVLPPHANHHGNTFGGQIMAWMETVATISASRLCHGHPFLKSVDMFKFRGPSTVGDRLVFSAIVNNTFQNSVEVGVRVEAFDCQEWAEGQGRHINSAFLIYNAVDDQEKLITFPRIQPISKDDFRRYQGAIARRRIRLGRKYVISHKKEVPLSAQWDISKKGSLSNTNVEALKNLASKSGWEITTTLEKIKIYTLEEQDAISVKVEKLVGSPAHIAYHLLSDLTKRPLWDPHYISCEVIDQVSEDDQIYYITCSVVNGDKPKDFVVLVSRRKPLKDNNTYTVALRSVVLPSVPSSPQYIRSEVICAGFLIQAVDSNSCTVTYLNQMSDSILPYFAGNIGGWSKSIEEAAASCIKFIENATPDGLKSVL”: the protein production result is given as “failed”.

As to “PLKEQKVINTANITTNSKLDLAEYENGLMNIAKEQFDTENHVLQLNQYIPEKLVDELVAKVKAPVLTNIIEQDYFGKQNSNELSLSGVMIGLAMSSSVSNEEAMSKGTEVANQLIEAIHKNDKYNKSPITFAIFKQESTSSLKNGTYIASATVQKNDTNIGNWNAIEEKAYSYPSDEFTQAHGEDNTKIDDFAKEMKGFSPGDFIPVNAKVSYKKNQMDTLNMNIVIKYNGKTELMALTQLAAQIMLEQLPKDAKVQLQIKSENKIEAIVIKEKNSDKPFV”, the protein production entry is listed as “not failed”.

“MSIADAEFAQAKTAQSAPTAAKPQLPPGVVTEGPLVKAKLRESYLLLGILYVGAVAGIIWAVTQGVGKVELFTFAWMFALTTFGIGAGMHRLFVHRSFRTGPIMRVFFCAIAQMAVQGSIAKWVANHRRHHLYADDVGDPHSPQFDGFGNRYVSALKGFLHAQGSWVFDQATTDNEYYAKDILADPIAMFFVRTRWVWYGMSAVFIPGFIGYVFGGVHTMIGCVLFSGLLRAYLLILVSQLTGSVCHAYGYRRFEVDDASTNEFVTTILTFGEGLHNNHHRFPRDAYISHAWWEIDLNGLIILGMEKIGLVHDVFHASHRQLERASEAQAASTR”: the protein production entry was “failed”.

As for “MLFNSFEFMLLFLPIAVIGYFLLQKVNKNFAKLFLVGMSLYFYAYFEVKYLLLIGVSLFTNAFIGQQIIQKINQKTRKVFLIVGLVFNISLLGYFKYSDFFLDNINTLFGTDVPLLKLLLPLGISFITFQKIGFLVDCYKRELTKFNFIDFCLFVTFFPQLIAGPIVHHSKVLPQFQDESKRRPNIENITKGLYIFGIGLTKKVVIADSLAQWADFGFSNVNQLSTTDAWVSSLAYTLQLYFDFSGYCDMAIGAALLFNIILPINFFSPYKSLSIQDFWRRWHMTLGRFFTQYVYIPLGGSRKGQIRTYLNLFTIFLISGIWHGAGWTFVIWGVLHGLAIVIHRLFKNLGGKMPKFIAWILTMGFVHVTWVFFRATSVEDALTMLNRMFNVNYLHIQTALIQFRPETLTGVSIMDNLIYSICNLFPFQVTGDHFNFQTILYLAIGIAIVLFTKNSIEKLESFRPKPIYALALASMFILSLMYLNRVSSFLYFNF”, the protein production entry was “failed”.

Turning to “MGPERHLSGAPARMATVVLGGDTMGPERIFPNQTEELGHQGPSEGTGDWSSEEPEEEQEETGSGPAGYSYQPLNQDPEQEEVELAPVGDGDVVADIQDRIQALGLHLPDPPLESEDEDEEGATALNNHSSIPMDPEHVELVKRTMAGVSLPAPGVPAWAREISDAQWEDVVQKALQARQASPAWK”, the protein production entry is on record as “failed”.

On to “AEDNLGPLPENWEMAYTENGEVYFIDHNTKTTSWLDPRCLNKQQ”, for which the protein production result was “not failed”.

Consider “MQIIEGKLQLQGNERVAILTSRFNHIITDRLQEGAMDCFKRHGGDEDLLDIVLVPGAYELPFILDKLLESEKYDGVCVLGAIIRGGTPHFDYVSAEATKGIAHAMLKYSMPVSFGVLTTDNIEQAIERAGSKAGNKGFEAMSTLIELLSLCQTLKG”, for which the protein production entry is “failed”.

Regarding “MSSFVLDKEAFVRRVKRLYTEWRAPSIGHDDALRNLDCIMSIVGVEEDVMYSKSMALQLWLLGYELTDTISVFCSDAVYFLTSKKKIEFLKQTQNITEEGFPEINLLVRDRTDKDQGNFEKLIKALQNSKKGKRLGVFAKDAYPGEFSEAWKKSLTASKFEHVDISTIIAYLMCPKDESEINNIRKASLVSMDIFNKYLKDEIMDIIDSDRKVKHNKLSDGCEAAIGEKKYTSGLDPRLLDMAYPPIIQSGGAYSLKFSAVADKNPLHFGVIVCSLGARYKSYCSNISRTFLVNPTEAMQENYTFLVSV”, the protein production result was “failed”.

On to “MGNKRFRSDNNAGKPTSVEATRIWATKVIEDFRASGNEVYTFEHNLSNNERGVIHQMCRKMGIQSKSSGRGEQRRLSIFKSRHKNGNKNEANEKSNKEKLKCVSFPPGADVILQELFTHYPPCDGDTAATSFTKYSGNKGKQGQWKDDFFRKPQISSEEILEKVASLSSRLKKDKALKEITKLRSKLPITSFKDAITSAVESNQVL”, for which the protein production entry was “failed”.

As for “MSLTAIHRPTWVSVDLDAAAHNLQEIREWTKAKKVYAVLKADGYGLGAIPLAKAFQETASADALIVSNLDEALELRQADLTLPIWVLGAWDYSDLKLFIDHDIVITIPSLAWLQNLPDFEGTLKVSLAIDTGMTRIGFDKADEISAAKKIIDKNPQLDLFSVYTHFATADEAGEKSKAYFEEQLRRWQELTINQGFDPSLFSMANSATCIWHHDDPRISFAAIRPGQLISGVNVSNGELKMPPNLHLERIFSVCSEIADVRFVKKDQSLSYGASERMPEDGYVATLPFGYNDGWLRRMQKSSVIINGKRMPIIGRITMDQTMVKLDRKYPIGTRVTLIGKDGGEQITVEEVANYSHTIVDEIQTTLAPRIKRIYTGDLAEVIGANYGEGHHHHHH”, the protein production result is listed as “not failed”.

Consider “MIDLILAIIILVSALLGLLRGFVSIIISTSSWLLASWATFEFGNTASHWLASHGIPSTTEILCGYALVFIGTLMTVGAVGMLMHAGINAIRLNNIDRIFGFALGTFRGGFIACLLLLMIGYTPLAHEPVWRNSRLVPLLQPGVSWMRAKLPQRSSPLTPQRLPLTRPMINRMGSINISVSDDNQLISRVFPPLSSNEHDKSHYVPVQPIIYKPTTTY”, for which the protein production entry is “failed”.
